From publication PMC2669833 come the findings set out here.

The experiment addresses Alvinella pompejana Cu, Zn superoxide dismutase (Alvinella pompejana). The experiment is described as follows: SAXS.

Usually stoichiometry N stands for the number of molecules, sites or subunits per partner or assembly.

The substance “Alvinella pompejana Cu, Zn superoxide dismutase (enzyme)” returned a stoichiometry N of 2.
